From PMC9681212

Target: Halo-HIF-1β (endogenously HaloTag-tagged HIF-1β, knock-in clone A21) (human (endogenous in 786-O)) (UniProt P27540)
Sequence (P27540 whole entry): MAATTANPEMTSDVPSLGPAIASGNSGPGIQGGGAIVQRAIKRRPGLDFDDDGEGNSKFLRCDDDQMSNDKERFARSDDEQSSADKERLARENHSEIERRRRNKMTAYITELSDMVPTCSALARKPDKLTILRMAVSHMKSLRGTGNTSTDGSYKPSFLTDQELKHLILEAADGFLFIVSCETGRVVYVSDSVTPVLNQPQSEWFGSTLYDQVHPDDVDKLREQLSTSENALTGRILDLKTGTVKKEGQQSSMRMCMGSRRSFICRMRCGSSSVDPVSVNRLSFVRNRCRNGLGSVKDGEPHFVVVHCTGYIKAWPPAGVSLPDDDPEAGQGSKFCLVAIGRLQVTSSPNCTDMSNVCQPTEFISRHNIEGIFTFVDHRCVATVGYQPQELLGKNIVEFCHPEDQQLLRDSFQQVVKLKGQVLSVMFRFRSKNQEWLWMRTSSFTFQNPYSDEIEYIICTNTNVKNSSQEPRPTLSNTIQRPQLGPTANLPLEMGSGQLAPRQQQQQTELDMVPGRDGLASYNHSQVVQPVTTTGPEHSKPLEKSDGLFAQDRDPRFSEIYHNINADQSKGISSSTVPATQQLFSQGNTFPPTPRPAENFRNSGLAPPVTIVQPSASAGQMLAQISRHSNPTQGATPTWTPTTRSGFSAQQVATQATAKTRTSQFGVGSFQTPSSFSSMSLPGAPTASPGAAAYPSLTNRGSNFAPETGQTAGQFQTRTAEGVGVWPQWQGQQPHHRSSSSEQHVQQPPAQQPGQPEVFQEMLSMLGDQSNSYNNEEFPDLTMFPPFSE

HIF-2α N-terminally fused with 3xFLAG tag through a short peptide linker sequence (GDGAGLIN), sequence (Q99814 whole entry, the tested form may be a part): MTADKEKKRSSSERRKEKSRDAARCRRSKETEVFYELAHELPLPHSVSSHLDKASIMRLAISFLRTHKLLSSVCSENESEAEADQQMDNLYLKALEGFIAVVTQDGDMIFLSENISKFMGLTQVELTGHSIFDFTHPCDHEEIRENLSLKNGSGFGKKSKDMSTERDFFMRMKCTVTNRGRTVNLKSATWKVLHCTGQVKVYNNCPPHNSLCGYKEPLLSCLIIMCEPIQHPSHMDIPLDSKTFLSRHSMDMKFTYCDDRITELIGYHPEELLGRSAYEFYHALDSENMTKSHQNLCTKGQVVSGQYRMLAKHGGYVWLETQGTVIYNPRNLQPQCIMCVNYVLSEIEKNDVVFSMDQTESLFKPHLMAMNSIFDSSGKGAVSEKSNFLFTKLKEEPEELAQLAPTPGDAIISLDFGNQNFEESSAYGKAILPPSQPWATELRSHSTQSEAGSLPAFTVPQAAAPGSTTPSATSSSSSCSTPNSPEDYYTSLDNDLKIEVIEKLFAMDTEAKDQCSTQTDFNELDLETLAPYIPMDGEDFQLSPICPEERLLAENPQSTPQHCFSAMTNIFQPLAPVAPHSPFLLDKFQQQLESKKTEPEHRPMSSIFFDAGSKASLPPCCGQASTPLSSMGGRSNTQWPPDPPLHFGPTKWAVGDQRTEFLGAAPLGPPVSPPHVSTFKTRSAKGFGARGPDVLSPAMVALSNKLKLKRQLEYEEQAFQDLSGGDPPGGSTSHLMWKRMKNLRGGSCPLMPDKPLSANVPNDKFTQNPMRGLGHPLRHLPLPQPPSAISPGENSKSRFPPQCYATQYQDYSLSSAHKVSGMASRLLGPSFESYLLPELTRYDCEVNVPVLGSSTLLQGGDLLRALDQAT

HIF-2α N-terminally fused with 3xFLAG tag through a short peptide linker sequence (GDGAGLIN) (from UniProt Q99814 1-870) (natural protein)
fSPT of endogenous Halo-HIF-1β in live 786-O KIN cells stably overexpressing HIF-2α: bound fraction of Halo-HIF-1β (diffusion coefficient <0.1 μm^2/s, presumably chromatin-bound): < 50%
